# Results reported in patent US20250304919A1 (MASSEY VENTURES, published 2025).
# B1: BSFnano711G8FnB2 nanorods displaying the FnB-pIII fusion (fibronectin-binding repeats of Streptococcus pyogenes serum opacity factor Sof22 fused to pIII) (other)
# chain: AAQPAGGHGPIVDIVEDTGTGVEGGAQNGVVSTQENKDPIVDITEDTQPGMSGSNDATVVEEDTTPQRPDVLVGGQSDPIDITEDTQPGMSGSNDATVVEEDTVPKRPDILVGGQSDPIDITEDTQPGMSGSNDATVIEEDTKPKRFFHFDNEAAAPGGAETVESCLAKPHTENSFTNVWKDDKTLDRYANYEGCLWNATGVVVCTGDETQCYGTWVPIGLAIPENEGGGSEGGGSEGGGSEGGGTKPPEYGDRPIPGYTYINPLDGTYPPGTEQNPANPNPSLEESQPLNTFMFQNNRFRNRQGALTVYTGTVTQGTDPVKTYYQYTPVSSKAMYDAYWNGKFRDCAFHSGFNEDPFVCEYQGQSSDLPQPPVNAGGGSGGGSGGGSEGGGSEGGGSEGGGSEGGGSGGGSGSGDFDYEKMANANKGAMTENADENALQSDAKGKLDSVATDYGAAIDGFIGDVSGLANGNGATGDFAGSNSQMAQVGDGDNSPLMNNFRQYLPSLPQSVECRPFVFGAGKPYEFSIDCDKINLFRGVFAFLLYVATFMYVFSTFANILRNKES
# Target: T1, human fibronectin (human, UniProt P02751 32-2477)
# T1 construct: also called Fn; analyte
# T1 sequence (P02751 32-2477 limits assumed): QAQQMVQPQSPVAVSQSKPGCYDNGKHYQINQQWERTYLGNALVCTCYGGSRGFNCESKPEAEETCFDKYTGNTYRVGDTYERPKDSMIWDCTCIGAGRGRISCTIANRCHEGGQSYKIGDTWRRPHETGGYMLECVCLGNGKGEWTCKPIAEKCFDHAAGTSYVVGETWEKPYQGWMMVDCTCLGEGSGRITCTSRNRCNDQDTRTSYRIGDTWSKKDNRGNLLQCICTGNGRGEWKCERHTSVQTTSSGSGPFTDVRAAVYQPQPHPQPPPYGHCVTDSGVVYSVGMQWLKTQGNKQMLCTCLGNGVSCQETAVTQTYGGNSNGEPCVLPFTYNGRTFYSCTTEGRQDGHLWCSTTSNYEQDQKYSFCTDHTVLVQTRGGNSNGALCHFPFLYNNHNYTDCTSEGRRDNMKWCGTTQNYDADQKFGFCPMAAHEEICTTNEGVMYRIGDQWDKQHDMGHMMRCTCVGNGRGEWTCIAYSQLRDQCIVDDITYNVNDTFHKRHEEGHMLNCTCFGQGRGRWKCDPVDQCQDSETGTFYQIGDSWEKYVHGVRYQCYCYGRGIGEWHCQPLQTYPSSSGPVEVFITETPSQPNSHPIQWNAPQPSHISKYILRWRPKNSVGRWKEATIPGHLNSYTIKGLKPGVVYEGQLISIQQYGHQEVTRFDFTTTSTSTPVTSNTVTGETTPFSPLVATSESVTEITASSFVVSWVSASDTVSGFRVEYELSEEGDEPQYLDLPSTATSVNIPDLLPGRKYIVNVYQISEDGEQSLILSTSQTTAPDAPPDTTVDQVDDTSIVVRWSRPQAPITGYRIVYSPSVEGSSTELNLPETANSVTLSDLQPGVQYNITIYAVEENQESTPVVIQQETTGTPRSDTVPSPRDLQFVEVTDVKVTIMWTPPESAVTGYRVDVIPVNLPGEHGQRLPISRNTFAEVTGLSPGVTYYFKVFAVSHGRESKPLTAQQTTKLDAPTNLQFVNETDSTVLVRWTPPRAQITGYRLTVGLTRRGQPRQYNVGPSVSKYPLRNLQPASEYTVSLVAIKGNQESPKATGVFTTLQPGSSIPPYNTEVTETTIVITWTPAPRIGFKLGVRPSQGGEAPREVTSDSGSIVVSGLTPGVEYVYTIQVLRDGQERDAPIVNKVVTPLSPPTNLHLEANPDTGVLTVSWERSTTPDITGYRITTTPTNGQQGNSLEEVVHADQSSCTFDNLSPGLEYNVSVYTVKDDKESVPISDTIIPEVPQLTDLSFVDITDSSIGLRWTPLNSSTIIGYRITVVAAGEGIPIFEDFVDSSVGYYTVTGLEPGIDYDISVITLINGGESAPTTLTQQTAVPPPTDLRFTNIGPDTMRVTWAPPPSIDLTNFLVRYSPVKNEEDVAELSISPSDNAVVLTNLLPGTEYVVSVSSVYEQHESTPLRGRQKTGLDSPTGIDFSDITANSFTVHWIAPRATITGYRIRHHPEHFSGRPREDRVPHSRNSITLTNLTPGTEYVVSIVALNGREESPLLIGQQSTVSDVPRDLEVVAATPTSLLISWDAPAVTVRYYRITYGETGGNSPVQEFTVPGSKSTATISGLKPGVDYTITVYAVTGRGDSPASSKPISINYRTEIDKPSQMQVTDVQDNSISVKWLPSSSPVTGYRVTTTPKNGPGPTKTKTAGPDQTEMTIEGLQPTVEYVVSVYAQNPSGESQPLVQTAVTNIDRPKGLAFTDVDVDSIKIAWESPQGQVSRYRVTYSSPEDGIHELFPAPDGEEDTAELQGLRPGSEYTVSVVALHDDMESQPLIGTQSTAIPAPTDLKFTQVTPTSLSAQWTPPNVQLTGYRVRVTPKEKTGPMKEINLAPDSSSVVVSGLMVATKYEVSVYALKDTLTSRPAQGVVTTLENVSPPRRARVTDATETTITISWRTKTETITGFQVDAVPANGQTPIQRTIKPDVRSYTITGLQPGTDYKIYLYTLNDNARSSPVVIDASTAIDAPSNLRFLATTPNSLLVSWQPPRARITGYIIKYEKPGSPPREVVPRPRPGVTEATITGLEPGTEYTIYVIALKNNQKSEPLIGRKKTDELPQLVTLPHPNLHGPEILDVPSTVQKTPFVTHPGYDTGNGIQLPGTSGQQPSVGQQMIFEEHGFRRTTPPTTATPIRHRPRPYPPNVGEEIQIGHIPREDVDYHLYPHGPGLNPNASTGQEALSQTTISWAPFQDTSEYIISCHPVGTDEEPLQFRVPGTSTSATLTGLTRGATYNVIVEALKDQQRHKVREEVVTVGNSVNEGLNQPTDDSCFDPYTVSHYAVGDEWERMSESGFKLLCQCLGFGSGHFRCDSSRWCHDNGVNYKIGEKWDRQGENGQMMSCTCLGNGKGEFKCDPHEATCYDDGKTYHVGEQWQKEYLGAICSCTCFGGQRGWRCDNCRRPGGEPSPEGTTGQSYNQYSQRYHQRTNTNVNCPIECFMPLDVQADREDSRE
# Experiment: lateral flow dipstick; reference LOD of 6.4 ng/mL is cited from the literature
binder,measurement,value
B1,"fold improvement of LOD against FnB nanorods of the phage system (Sattar et al., 2015)",160 fold
